Measurements: patent publication US20170008928A1, “NOVEL PEPTIDES AND PEPTIDE DERIVATIVES AND USES THEREOF” (Novo Nordisk A/S, priority 2015, published 2017)
Read-outs that look alike come from different tables or passages of the source. Starred links: 1 amine or outer side, 2 acyl side, 3 side chain; linkers in the order of their positions; H or OH if unused. Non-standard residues stand in square brackets, D forms with d. Residues, ends and D or L forms follow the SMILES beside them. *: point of attachment. sY = N[C@@H](Cc1ccc(OS(=O)(=O)O)cc1)C(=O)O; C18 diacid = O=C(O)CCCCCCCCCCCCCCCCC(=O)*; C16 diacid = O=C(O)CCCCCCCCCCCCCCC(=O)*; γGlu = O=C(O)[C@H](CCC(=O)[*:2])N[*:1]; C14 diacid = O=C(O)CCCCCCCCCCCCC(=O)*; NMeF = CN[C@@H](Cc1ccccc1)C(=O)O; dNMeD = CN[C@H](CC(=O)O)C(=O)O; Nle = CCCC[C@H](N)C(=O)O; AEEA = NCCOCCOCC(=O)O

What was measured:
[1] = target: T1, human cholecystokinin-2 receptor (human, UniProt P32239 1-447); experiment: cell-based or functional assay
T1 sequence (looked up): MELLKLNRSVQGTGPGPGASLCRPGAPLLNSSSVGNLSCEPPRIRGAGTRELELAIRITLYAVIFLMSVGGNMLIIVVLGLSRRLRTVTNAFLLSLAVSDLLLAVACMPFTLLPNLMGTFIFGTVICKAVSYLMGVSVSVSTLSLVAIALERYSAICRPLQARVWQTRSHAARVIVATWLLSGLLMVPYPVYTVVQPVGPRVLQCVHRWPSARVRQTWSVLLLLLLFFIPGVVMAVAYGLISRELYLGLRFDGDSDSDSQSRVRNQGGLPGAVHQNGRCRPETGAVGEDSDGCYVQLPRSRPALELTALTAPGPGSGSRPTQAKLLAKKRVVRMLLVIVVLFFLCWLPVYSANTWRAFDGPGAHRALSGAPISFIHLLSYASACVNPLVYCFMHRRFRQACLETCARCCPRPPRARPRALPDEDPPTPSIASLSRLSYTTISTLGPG

[2] = target: T2, human cholecystokinin-2 receptor (CCK-2R) (Homo sapiens, UniProt P32239); experiment: In vitro potency on CCK-2R, whole cell functional assay (IP1 accumulation, IP-One HTRF); type: cell-based
T2 construct: host or cells: 1321-N1 cells (plasma membranes prepared by Evotec AG Hamburg)
T2 sequence (P32239 1-447): T1 sequence (looked up)

[3] = 1321-N1 cells stably expressing CCK-2R, IP1 accumulation, highest dose tested 1×10^6 pM, read-out: EC50 (CCK-2R)

Row | Compound | EC50 (CCK-2R) [1] [µM] | EC50 [2, 3] [µM] | further results
1 | 2-[2-[2-[[2-[2-[2-[[(4S)-4-Carboxy-4-(13-carboxytridecanoylamino)butanoyl]amino]ethoxy]ethoxy]acetyl]amino]ethoxy]ethoxy]acetyl-Asp-Phe(4-sulfomethyl)-Leu-Gly-Trp-Nle-DMeAsp-MePhe-amide (peptide) | > 1 |  | 
2 | 2-[2-[2-[[2-[2-[2-[[(4S)-4-Carboxy-4-(15-carboxypentadecanoylamino)butanoyl]amino]ethoxy]ethoxy]acetyl]amino]ethoxy]ethoxy]acetyl-Asp-Phe(4-sulfomethyl)-Leu-Gly-Trp-Nle-DMeAsp-MePhe-amide (peptide) | > 1 |  | 
3 | 2-[2-[2-[[2-[2-[2-[[(4S)-4-Carboxy-4-(17-carboxyheptadecanoylamino)butanoyl]amino]ethoxy]ethoxy]acetyl]amino]ethoxy]ethoxy]acetyl-DbAsp-Phe(4-sulfomethyl)-Nle-Gly-Trp-Nle-DMeAsp-MePhe-amide (peptide) | > 1 |  | 
4 | 2-[2-[2-[[2-[2-[2-[[(4S)-4-Carboxy-4-(19-carboxynonadecanoylamino)butanoyl]amino]ethoxy]ethoxy]acetyl]amino]ethoxy]ethoxy]acetyl-Asp-Phe(4-sulfomethyl)-Leu-Gly-Trp-Nle-DMeAsp-MePhe-amide (peptide) | > 1 |  | 
5 | CCCC[C@H](NC(=O)[C@H](Cc1ccc(OS(=O)(=O)O)cc1)NC(=O)[C@H](CC(=O)O)NC(=O)COCCOCCNC(=O)COCCOCCNC(=O)CC[C@H](NC(=O)CCCCCCCCCCCCCCCCC(=O)O)C(=O)O)C(=O)NCC(=O)N[C@@H](Cc1c[nH]c2ccccc12)C(=O)N[C@@H](CCCC)C(=O)N(C)[C@H](CC(=O)O)C(=O)N[C@@H](Cc1c[nH]c2ccccc12)C(N)=O [Example 1, 2-[2-[2-[[2-[2-[2-[[(4S)-4-Carboxy-4-(17-carboxyheptadecanoylamino)butanoyl]amino]ethoxy]ethoxy]acetyl]amino]ethoxy]ethoxy]acetyl-Asp-sTyr-Nle-Gly-Trp-Nle-DMeAsp-Trp-amide] ({C18 diacid-γGlu-AEEA-AEEA}-D[sY][Nle]GW[Nle][dNMeD]W-NH2) |  | > 1 | 
6 | CCCC[C@H](NC(=O)[C@H](Cc1c[nH]c2ccccc12)NC(=O)CNC(=O)[C@H](CC(C)C)NC(=O)[C@H](Cc1ccc(OS(=O)(=O)O)cc1)NC(=O)[C@H](CC(=O)O)NC(=O)COCCOCCNC(=O)COCCOCCNC(=O)CC[C@H](NC(=O)CCCCCCCCCCCCCCCCC(=O)O)C(=O)O)C(=O)N(C)[C@H](CC(=O)O)C(=O)N(C)[C@@H](Cc1ccccc1)C(N)=O [Example 9, 2-[2-[2-[[2-[2-[2-[[(4S)-4-Carboxy-4-(17-carboxyheptadecanoylamino)butanoyl]amino]ethoxy]ethoxy]acetyl]amino]ethoxy]ethoxy]acetyl-Asp-sTyr-Leu-Gly-Trp-Nle-DMeAsp-MePhe-amide] |  |  | EC50 [2]: 0.17 µM
7 | CCCC[C@H](NC(=O)[C@H](Cc1c[nH]c2ccccc12)NC(=O)CNC(=O)[C@H](CC(C)C)NC(=O)[C@H](Cc1ccc(OS(=O)(=O)O)cc1)NC(=O)[C@H](CCC(=O)O)NC(=O)COCCOCCNC(=O)COCCOCCNC(=O)CC[C@H](NC(=O)CCCCCCCCCCCCCCC(=O)O)C(=O)O)C(=O)N(C)[C@H](CC(=O)O)C(=O)N(C)[C@@H](Cc1ccccc1)C(N)=O [Example 39, 2-[2-[2-[[2-[2-[2-[[(4S)-4-Carboxy-4-(15-carboxypentadecanoylamino)butanoyl]amino]ethoxy]ethoxy]acetyl]amino]ethoxy]ethoxy]acetyl-Glu-sTyr-Leu-Gly-Trp-Nle-DMeAsp-MePhe-amide] ({C16 diacid-γGlu-AEEA-AEEA}-E[sY]LGW[Nle][dNMeD][NMeF]-NH2) |  | 0.11 | 
8 | CCCC[C@H](NC(=O)[C@H](Cc1c[nH]c2ccccc12)NC(=O)CNC(=O)[C@H](Cc1c[nH]cn1)NC(=O)[C@H](Cc1ccc(OS(=O)(=O)O)cc1)NC(=O)[C@H](CC(=O)O)NC(=O)COCCOCCNC(=O)COCCOCCNC(=O)CC[C@H](NC(=O)CCCCCCCCCCCCCCCCC(=O)O)C(=O)O)C(=O)N(C)[C@H](CC(=O)O)C(=O)N(C)[C@@H](Cc1ccccc1)C(N)=O [Example 48, 2-[2-[2-[[2-[2-[2-[[(4S)-4-Carboxy-4-(17-carboxyheptadecanoylamino)butanoyl]amino]ethoxy]ethoxy]acetyl]amino]ethoxy]ethoxy]acetyl-Asp-sTyr-His-Gly-Trp-Nle-DMeAsp-MePhe-amide] ({C18 diacid-γGlu-AEEA-AEEA}-D[sY]HGW[Nle][dNMeD][NMeF]-NH2) |  | > 1 | 
9 | Asp-Phe(4-sulfomethyl)-Leu-Gly-Trp-Nle-DMeAsp-MePhe-amide (peptide) | > 1 |  | 

The next lines start with results.

Row | EC50 (CCK-2R) [1] [µM] | EC50 [2, 3] [µM] | Compound | further results
10 | > 1 |  | 2-[2-[2-[[2-[2-[2-[[(4S)-4-Carboxy-4-(17-carboxyheptadecanoylamino)butanoyl]amino]ethoxy]ethoxy]acetyl]amino]ethoxy]ethoxy]acetyl-Asp-Phe(4-sulfomethyl)-Nle-Gly-Trp-Nle-DMeAsp-MePhe-amide (peptide) | 
11 | > 1 |  | 2-[2-[2-[[2-[2-[2-[[(4S)-4-Carboxy-4-(17-carboxyheptadecanoylamino)butanoyl]amino]ethoxy]ethoxy]acetyl]amino]ethoxy]ethoxy]acetyl-DAsp-Phe(4-sulfomethyl)-Nle-Gly-Trp-Nle-DMeAsp-MePhe-amide (peptide) | 
12 | > 1 |  | 2-[2-[2-[[2-[2-[2-[[(4S)-4-Carboxy-4-(17-carboxyheptadecanoylamino)butanoyl]amino]ethoxy]ethoxy]acetyl]amino]ethoxy]ethoxy]acetyl-bAsp-Phe(4-sulfomethyl)-Nle-Gly-Trp-Nle-DMeAsp-MePhe-amide (peptide) | 
13 |  | 0.15 | CCCC[C@H](NC(=O)[C@H](Cc1c[nH]c2ccccc12)NC(=O)CNC(=O)[C@H](CC(C)C)NC(=O)[C@H](Cc1ccc(OS(=O)(=O)O)cc1)NC(=O)[C@H](CCC(=O)O)NC(=O)COCCOCCNC(=O)COCCOCCNC(=O)CC[C@H](NC(=O)CCCCCCCCCCCCC(=O)O)C(=O)O)C(=O)N(C)[C@H](CC(=O)O)C(=O)N(C)[C@@H](Cc1ccccc1)C(N)=O [Example 36, 2-[2-[2-[[2-[2-[2-[[(4S)-4-Carboxy-4-(13-carboxytridecanoylamino)butanoyl]amino]ethoxy]ethoxy]acetyl]amino]ethoxy]ethoxy]acetyl-Glu-sTyr-Leu-Gly-Trp-Nle-DMeAsp-MePhe-amide] ({C14 diacid-γGlu-AEEA-AEEA}-E[sY]LGW[Nle][dNMeD][NMeF]-NH2) | 
14 |  | 0.046 | CCCC[C@H](NC(=O)[C@H](Cc1c[nH]c2ccccc12)NC(=O)CNC(=O)[C@H](CC(C)C)NC(=O)[C@H](Cc1ccc(OS(=O)(=O)O)cc1)NC(=O)[C@@H](CCC(=O)O)NC(=O)COCCOCCNC(=O)COCCOCCNC(=O)CC[C@H](NC(=O)CCCCCCCCCCCCCCCCC(=O)O)C(=O)O)C(=O)N(C)[C@H](CC(=O)O)C(=O)N(C)[C@@H](Cc1ccccc1)C(N)=O [Example 49, 2-[2-[2-[[2-[2-[2-[[(4S)-4-Carboxy-4-(17-carboxyheptadecanoylamino)butanoyl]amino]ethoxy]ethoxy]acetyl]amino]ethoxy]ethoxy]acetyl-DGlu-sTyr-Leu-Gly-Trp-Nle-DMeAsp-MePhe-amide] ({C18 diacid-γGlu-AEEA-AEEA}-[dE][sY]LGW[Nle][dNMeD][NMeF]-NH2) | 
15 |  | 0.38 | CCCC[C@H](NC(=O)[C@H](Cc1c[nH]c2ccccc12)NC(=O)CNC(=O)[C@H](CC(C)C)NC(=O)[C@H](Cc1ccc(OS(=O)(=O)O)cc1)NC(=O)[C@@H](N)CC(=O)O)C(=O)N(C)[C@H](CC(=O)O)C(=O)N(C)[C@@H](Cc1ccccc1)C(N)=O [Example 60, Asp-sTyr-Leu-Gly-Trp-Nle-DMeAsp-MePhe-amide] | 
